Biological target: HLA-A*0201 molecules on T2 cells (MHC class I/β2-microglobulin complex) (human (endogenous in T2) | )
Test: FACS; competition with F1-peptide on T2 cells

SLSYTNPAV [P7:SLSYTNPAV, MUC1 cytoplasmic tail peptide]
IC50: 0.419 µg/mL
